The target in test [1] is T1, Biotin conjugated 6×His peptide (also: biotin conjugated, site not given here).
T1 construct: also called histidine hexamer peptide
T1 peptide: HHHHHH
The experiment in a line: SPR, Biacore 8K, CM5 chip; biotin 6×His peptide captured on streptavidin, scFv injected in 2-fold dilutions. The source says: (§1) Since the murine anti-His antibody had decreased binding affinity against 6×His peptide after humanization, affinity maturation was further performed to increase it and chicken anti-CD40 antibody (2B1) was only humanized. Serial dilution antibodies at 6 concentrations were used to characterize the kinetics of antibody-antigen binding by SPR. […] So, there was not affinity loss against their antigen after humanization (FIG. 22B).
(§2) A Biacore 8K SPR system (Cytiva) equipped with CM5 sensor chip (Cytiva) was used to generate binding kinetic rate and affinity constants. To prepare the capture surfaces for anti-His antibodies, streptavidin was immobilized, followed by biotin conjugated 6×His peptide was captured. The antibodies were 2-fold serial diluted with 1×PBS, then injected at a flow rate of 30 μL/min for 3 minutes, allowing 10 minutes dissociation phase. The surface was regenerated using 10 mM glycine, pH 1.5. The kinetics were analyzed using Biacore 8K evaluation software, version 1.0 (Cytiva). In case of anti-CD40 antibodies, anti-human Fc IgG (Jackson ImmunoResearch) was immobilized, and then CD40-hFc protein (Acro Biosystems, #CD0-H5253) was captured. The antibodies were 2-fold serial diluted with HBS-EP+ buffer (10 mm HEPES, 150 mm sodium chloride, 3 mm EDTA, 0.05% Polysorbate 20), then injected at a flow rate of 30 μL/min for 4 minutes, allowing >15 minutes dissociation phase.
(In SPR one partner is held on a chip, and binding of the other changes the refractive index at the surface.)

Test [2] deals with T1, Biotin conjugated 6×His peptide. The experiment in a line: SPR, Biacore 8K; reference is the parental murine anti-His antibody.
Source text: as §1, §2

For test [3] the target is unchanged. The experiment in a line: SPR (Biacore 8K): biotin 6×His peptide captured on immobilized streptavidin, scFv injected in 2-fold dilutions (6 curves).
Source text: as §1, §2

No end group written: not given here.

B1: Humanized and affinity maturated anti-His scFv (hu3D5M) (scFv)
scFv: DIVMTQSPLSLPVTPGEPASISCRSSQSIVHSNRNTYLEWYLQKPGQSPQLLIYKVSNRFSGVPDRFSGSGSGTDFTLKISRVEAEDVGVYYCFQGSHVPFTFGQGTKLEIKRGGGGSGGGGSGGGGSGGGGSQVQLVQSGAEVKKPGASVKVSCKASGYTFTDYYMNWVRQAPGQGLEWMGDINPNHGGTYYNHKFKGRVTMTVDTSTSTAYMELRSLRSDDTAVYYCESQSGAYWGQGTTVTVSS
notes: also called humanized anti-His
In the case of B1, the dissociation constant Kd – broadly, a measure of binding affinity in units of concentration – in test [1] was found to be 2.15 nM. In addition, the “fold higher affinity than parental antibody” value in test [2] was determined as 5.8 fold. Moreover, in test [3], the koff – broadly, a measure of how fast the partners let go of each other – stood at 0.00094 s⁻¹ and the kon (usually a measure of how fast the partners come together) worked out at 437000 M⁻¹ s⁻¹.

Values taken from patent publication US20250018037A1 (SEOUL NATIONAL UNIVERSITY R AND DB FOUNDATION, published 2025).
